# B1: 30-5mZ / 30-5mC-down (dsDNA)
# DNA 1: CAGCATTATCACAGCGTTTACACAATAACC
# DNA 2: GGTTATTGTGTAAACGCTGTGATAATGCTG
# modifications: 5-methyl-2-pyrimidinone (5-methylzebularine) at position 15 of strand 1 (written C); 5mC at position 15 of strand 2
# B2: 30-dhaC / 30-5mC-down (dsDNA)
# DNA 1: B1 DNA 1
# DNA 2: B1 DNA 2
# modifications: 5,6-dihydro-5-azacytosine at position 15 of strand 1 (written C); 5mC at position 15 of strand 2
# Molecular target: M.MpeI (called wild type) (Mycoplasma penetrans? (printed "M. …, UniProt Q8EVR5 1-395, Q68R;K71R;S295P))
# Assay: EMSA; 80 uM SAM, 1 mM DTT, 10 mM MgCl2; non-covalent complex among the most abundant; EMSA: 10 mM Tris-HCl pH 7.9, 50 mM NaCl, 10 mM MgCl2, 1 mM DTT, 80 uM SAM, 37 C 1 h, 1 uM DNA, 0.5-4 uM protein; covalent SDS-PAGE: 10 mM Tris-HCl pH 7.9, 50 mM NaCl, 160 uM SAM or sinefungin, +/-10 mM DTT, 37 C
# Details: protein: recombinant; tags: C-terminal LEHHHHHH; label: 5' Cy3 or 5' 32P on strand 2; blunt
row,Binder,binding result
1,B1,binds
2,B2,binds

# Reference: article PMC11347137, “Cytosine analogues as DNA methyltransferase substrates”
